Reference: patent publication US20110091971A1, “Differentiation of Pluripotent Stem Cells” (priority 2008, published 2011)
Changes are numbered by the printed parent chain. Values joined by “and” are separate entries in the source; they are usually repeats but may differ in a detail not shown here. Equal values may be shown once. “Also recorded” adds a separate entry of the source.

Tested on: H1 or H9 human embryonic stem cells
Assay: Activin A bioassay: differentiation of human embryonic stem cells to definitive endoderm, cell number and SOX17 intensity by high content analysis (96-well, four days);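 for Cell Number average: Raw total cell count per well from high content imaging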;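 for Sox 17 Intensity average: total fluorescence of the cell multiplied by cell area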
Type: cell-based
Description: Activin A is an important mediator of differentiation in a broad range of cell types. […] A bioassay that measures this differentiation in human embryonic stem cells was adapted in miniaturized format to 96-well plates for screening purposes. Validation was completed using treatment with commercial sources of activin A and Wnt3a recombinant proteins and measuring protein expression of the transcription factor SOX17, which is considered a representative marker of definitive endoderm.
Live Cell Assay: Briefly, clusters of H1 or H9 human embryonic stem cells were grown on growth factor-reduced MATRIGEL™ (Invitrogen; Cat #356231)-coated tissue culture plastic. Cells were passaged using collagenase (Invitrogen; Cat # Cat #17104-019) treatment and gentle scraping, washed to remove residual enzyme, and plated in a ratio of 1:1 (surface area) on growth factor-reduced MATRIGEL™-coated 96-well plates (black, 96-well; Packard ViewPlates; Cat #6005182). Cells were allowed to attach as clusters and then recover log phase growth over a 1 to 3 day period, feeding daily with MEF conditioned medium supplemented with 8 ng/ml bFGF (R&D Systems; Cat #233-FB).
The assay was initiated by washing the wells of each plate twice in PBS and followed by adding an aliquot (100 μl) of test sample in DMEM:F12 basal medium (Invitrogen; Cat #11330-032) to each well. Test conditions were performed in triplicate, feeding […] by aspirating and replacing the medium from each well with test samples over a total four day assay period. On the first and second day of assay, test samples added to the assay wells were diluted in DMEM:F12 with 0.5% FCS (HyClone; Cat #SH30070.03) and 20 ng/ml Wnt3a (R&D Systems; Cat #1324-WN). On the third and fourth day of assay, test samples added to the assay wells were diluted in DMEM:F12 with 2% FCS, without any Wnt3a. Positive control samples consisted of recombinant human activin A (Peprotech; Cat #120-14) added at a concentration of 100 ng/ml throughout assay plus Wnt3a (20 ng/ml) on days 1 and 2. Negative control samples omitted treatment with both activin A and Wnt3a.
High Content Analysis: At the conclusion of four days of culture, assay plates were washed twice with PBS, fixed with 4% paraformaldehyde at room temperature for 20 minutes, then washed three times with PBS and permeabilized with 0.5% Triton X-100 for 20 minutes at room temperature. Cells were washed again three times with PBS and blocked with 4% chicken serum (Invitrogen; Cat #16110082) in PBS for 30 minutes at room temperature. Primary antibody (goat anti-human SOX17; R&D Systems; cat #AF1924) was diluted 1:100 in 4% chicken serum and added to each well for one hour at room temperature. Alexa Fluor 488 conjugated secondary antibody (chicken anti-goat IgG; Molecular Probes; Cat #) was diluted 1:200 in PBS and added to each sample well after washing three times with PBS. To counterstain nuclei, 4 μg/ml Hoechst 33342 (Invitrogen; Cat #H3570) was added for ten minutes at room temperature. Plates were washed once with PBS and left in 100 μl/well PBS for imaging.
Imaging was performed using an IN Cell Analyzer 1000 (GE Healthcare) utilizing the 51008bs dichroic for cells stained with Hoechst 33342 and Alexa Fluor 488. Exposure times were optimized from positive control wells and from untreated negative control wells stained with secondary antibody alone. Images from 15 fields per well were acquired to compensate for any cell loss during the bioassay and subsequent staining procedures. Measurements for total cell number and total SOX17 intensity were obtained from each well using IN Cell Developer Toolbox 1.7 (GE Healthcare) software. Segmentation for the nuclei was determined based on grayscale levels (baseline range 100-300) and nuclear size. Averages and standard deviations were calculated for each replicate data set. […]

[1] = supernatant concentration 1x, assay dilution 1:20
[2] = supernatant concentration 1x, assay dilution 1:20, control = R&D Sys Activin A 100 ng/ml on same plate
[3] = supernatant concentration 10x, assay dilution 1:20
[4] = supernatant concentration 10x, assay dilution 1:20, control = R&D Sys Activin A 100 ng/ml on same plate
[5] = supernatant concentration 10x, assay dilution 1:40
[6] = supernatant concentration 10x, assay dilution 1:40, control = R&D Sys Activin A 100 ng/ml on same plate
[7] = concentrated supernatant (10x; ACTD3 4x), assay dilution 1:20

What does the source list for R&D Sys Activin A?
Cell Number average (assay concentration 6.25 ng/ml): 5540; Sox 17 Intensity % of control (assay concentration 6.25 ng/ml): 13%; Sox 17 Intensity average (assay concentration 6.25 ng/ml): 5.49E+06; Cell Number average (assay concentration 12.5 ng/ml): 5784; Sox 17 Intensity % of control (assay concentration 12.5 ng/ml): 19%; Sox 17 Intensity average (assay concentration 12.5 ng/ml): 8.10E+06; Cell Number average (assay concentration 25 ng/ml): 6212; Sox 17 Intensity % of control (assay concentration 25 ng/ml): 39%; Sox 17 Intensity average (assay concentration 25 ng/ml): 1.69E+07; Cell Number average (assay concentration 50 ng/ml): 6218; Sox 17 Intensity % of control (assay concentration 50 ng/ml): 33%; Sox 17 Intensity average (assay concentration 50 ng/ml): 1.45E+07; Cell Number average (assay concentration 100 ng/ml): 8680; Sox 17 Intensity % of control (assay concentration 100 ng/ml): 100%; Sox 17 Intensity average (assay concentration 100 ng/ml): 4.37E+07; Cell Number average (assay concentration 200 ng/ml): 12032; Sox 17 Intensity % of control (assay concentration 200 ng/ml): 285%; Sox 17 Intensity average (assay concentration 200 ng/ml): 1.25E+08; Cell Number average (assay concentration 400 ng/ml): 13961; Sox 17 Intensity % of control (assay concentration 400 ng/ml): 396%; Sox 17 Intensity average (assay concentration 400 ng/ml): 1.73E+08

B1: OriGene wildtype: wildtype human activin A expressed from commercial OriGene construct (Cat. No. TC118774, pCMV6-XL4); supernatant used as positive control (protein, UniProt P08476 311-426, looked up)
Inhibin beta A chain: GLECDGKVNICCKKQFFVSFKDIGWNDWIIAPSGYHANYCEGECPSHIAGTSGSSLSFHSTVINHYRMRGHSPFANLKSCCVPTKLRPMSMLYYDDGQNIIKKDIQNMIVEECGCS
modifications: Inhibin beta A chain activin A homodimer
Which results are given for B1?
improvement of functional activity on concentrating the supernatant (HEK293-E supernatant, 4× concentrated versus 1× (neat)): approximately 1.5 fold; activity (SOX17 intensity) of supernatants (HEK293-E supernatants, OriGene in pCMV6-XL4 compared with ACTN 1 in pcDNA3.1(−)): much greater activity; also recorded: superior; Cell Number average [1]: 979; Sox 17 Intensity average [1]: 1.819E+07; Sox 17 Intensity % of control [2]: 9.9%; Cell Number average [3]: 5548; Sox 17 Intensity average [3]: 2.035E+08; Cell Number average (supernatant concentration 10x, assay dilution 1:20, assay plates #007, #009, #010, listed as OriGENE WT): 12727 and 7061 and 11356; Cell Number average (supernatant concentration 50x, assay dilution 1:20, assay plates #008, #009, listed as OriGENE WT): 12200 and 9025; Sox 17 Intensity % of control (supernatant concentration 50x, assay dilution 1:20, control = R&D Sys Activin A 100 ng/ml on same plate, listed as OriGENE WT): 409.0% and 285.3%

B2: ACTN38: activin A variant peptide, SEQ ID 39 (protein)
chain: B1 Inhibin beta A chain with I10L, F16D, Y39K, E41G, E43K, A75S, N76Q, K78G, S79A
What does the source list for B2?
Cell Number average [1]: 2023; Sox 17 Intensity average [1]: 9.26E+04; Sox 17 Intensity % of control [2]: 1.0%; Cell Number average [3]: 3019; Sox 17 Intensity average [3]: 3.89E+05; Sox 17 Intensity % of control [4]: 4.2%; Cell Number average [5]: 2520; Sox 17 Intensity average [5]: 3.56E+04; Sox 17 Intensity % of control [6]: 0.4%

B3: ACTN16: activin A variant peptide, SEQ ID 17 (protein)
chain: B1 Inhibin beta A chain with I10L, F16L, Y39H, E41S, E43L, A75S, N76Q, L77M, K78G, S79A
B3 was tested. Which “Cell Number average” value [7] did it give?
The value was 8775.

And the “Sox 17 Intensity average” value [7]?
Its value is 3.89E+07.

What about the “Sox 17 Intensity % of control” value (concentrated supernatant (10x; ACTD3 4x), assay dilution 1:20, control = R&D Sys Activin A 100 ng/ml) of the same molecule?
The value was 89%.

What about the “higher potency of supernatant concentrated 10× relative to corresponding unconcentrated supernatant” value (primary screening, SOX17 expression, H1 cells) of the same molecule?
Its value is 4 fold.

And the “Cell Number average” value [1]?
The value was 7068.

And the “Sox 17 Intensity average” value [1]?
Its value is 1.36E+07.

And the “Sox 17 Intensity % of control” value [2]?
Its value is 52.7%.

And the “Cell Number average” value [3]?
Its value is 11118.

And the “Sox 17 Intensity average” value [3]?
Its value is 5.55E+07.

And the “Sox 17 Intensity % of control” value [4]?
Its value is 214.4%.

And the “Cell Number average” value [5]?
The value was 11064.

And the “Sox 17 Intensity average” value [5]?
The value was 6.46E+07.

What about the “Sox 17 Intensity % of control” value [6] of the same molecule?
Its value is 249.3%.

B4: ACTN35: activin A variant peptide, SEQ ID 36 (protein)
chain: B1 Inhibin beta A chain with I10L, F16D, Y39R, E41S, E43K, A75S, N76D, L77M, K78G
How did the “Cell Number average” value [1] turn out when B4 was run?
Its value is 8553.

And the “Sox 17 Intensity average” value [1]?
Its value is 7.94E+04.

And the “Sox 17 Intensity % of control” value [2]?
Its value is 0.3%.

And the “Cell Number average” value [3]?
Its value is 6805.

What about the “Sox 17 Intensity average” value [3] of the same molecule?
Its value is 1.26E+06.

And the “Sox 17 Intensity % of control” value [4]?
Its value is 4.3%.

What about the “Cell Number average” value [5] of the same molecule?
The value was 7926.

What about the “Sox 17 Intensity average” value [5] of the same molecule?
The value was 6.76E+05.

What about the “Sox 17 Intensity % of control” value [6] of the same molecule?
The value was 2.3%.
